Data taken from IntAct's records for PubMed 26912900.

B1: 26S proteasome regulatory subunit RPN1 (Saccharomyces cerevisiae), P38764 (parent)
chain: MVDESDKKQQTIDEQSQISPEKQTPNKKDKKKEEEEQLSEEDAKLKTDLELLVERLKEDDSSLYEASLNALKESIKNSTSSMTAVPKPLKFLRPTYPDLCSIYDKWTDPNLKSSLADVLSILAMTYSENGKHDSLRYRLLSDVSDFEGWGHEYIRHLALEIGEVYNDQVEKDAEDETSSDGSKSDGSAATSGFEFSKEDTLRLCLDIVPYFLKHNGEEDAVDLLLEIESIDKLPQFVDENTFQRVCQYMVACVPLLPPPEDVAFLKTAYSIYLSQNELTDAIALAVRLGEEDMIRSVFDATSDPVMHKQLAYILAAQKTSFEYEGVQDIIGNGKLSEHFLYLAKELNLTGPKVPEDIYKSHLDNSKSVFSSAGLDSAQQNLASSFVNGFLNLGYCNDKLIVDNDNWVYKTKGDGMTSAVASIGSIYQWNLDGLQQLDKYLYVDEPEVKAGALLGIGISASGVHDGEVEPALLLLQDYVTNPDTKISSAAILGLGIAFAGSKNDEVLGLLLPIAASTDLPIETAAMASLALAHVFVGTCNGDITTSIMDNFLERTAIELKTDWVRFLALALGILYMGQGEQVDDVLETISAIEHPMTSAIEVLVGSCAYTGTGDVLLIQDLLHRLTPKNVKGEEDADEEETAEGQTNSISDFLGEQVNEPTKNEEAEIEVDEMEVDAEGEEVEVKAEITEKKNGESLEGEEIKSEEKKGKSSDKDATTDGKNDDEEEEKEAGIVDELAYAVLGIALIALGEDIGKEMSLRHFGHLMHYGNEHIRRMVPLAMGIVSVSDPQMKVFDTLTRFSHDADLEVSMNSIFAMGLCGAGTNNARLAQLLRQLASYYSREQDALFITRLAQGLLHLGKGTMTMDVFNDAHVLNKVTLASILTTAVGLVSPSFMLKHHQLFYMLNAGIRPKFILALNDEGEPIKVNVRVGQAVETVGQAGRPKKITGWITQSTPVLLNHGERAELETDEYISYTSHIEGVVILKKNPDYREEE
partner: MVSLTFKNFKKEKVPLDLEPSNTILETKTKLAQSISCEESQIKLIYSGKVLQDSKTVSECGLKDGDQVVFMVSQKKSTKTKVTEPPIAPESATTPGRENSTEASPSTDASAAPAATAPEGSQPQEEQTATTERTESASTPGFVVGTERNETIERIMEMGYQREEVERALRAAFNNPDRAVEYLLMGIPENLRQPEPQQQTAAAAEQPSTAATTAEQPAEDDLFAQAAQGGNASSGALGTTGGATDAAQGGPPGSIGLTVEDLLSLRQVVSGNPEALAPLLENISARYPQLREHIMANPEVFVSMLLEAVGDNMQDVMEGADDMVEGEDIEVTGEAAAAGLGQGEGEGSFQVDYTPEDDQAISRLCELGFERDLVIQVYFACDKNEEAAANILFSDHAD

Variants of: B1
Conditions: with rad23_yeast RAD23, P32628

effect of a mutation on the interaction	Variant
disrupting interaction strength	D541A;D548R;E552R
